Assay results: the supplement of paper PMC9170038

Tested on: MS2 coat protein
Test: apparent KD of MS2 coat protein; designed switch direction (-1 OFF switch, 1 ON switch): -1; higher = weaker reporter binding
Outline: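 For each design, the apparent KD is the median over clusters of curves fitted to normalised cluster fluorescence. Clusters held RNA switches with common flanks, transcribed on Illumina chips by stalled E. coli RNA polymerase. These were titrated with SNAP-549-labelled MS2 coat protein, doubling from 0.7 or 1.5 nM to 3 µM, without input, with 200 uM small-molecule ligand, or with an oligonucleotide input.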

[1] = Eterna round: R95, input ligand: FMN 200 uM
[2] = Eterna round: R95, input ligand: microRNA oligo, concentration not stated
[3] = Eterna round: R95, input ligand: none
[4] = input ligand: microRNA oligo, concentration not stated

Sequence	apparent KD of MS2 coat protein [1] [µM]	apparent KD of MS2 coat protein [2] [µM]	apparent KD of MS2 coat protein [3] [µM]	apparent KD of MS2 coat protein (input ligand: FMN 200 uM) [µM]	apparent KD of MS2 coat protein (input ligand: none) [µM]	apparent KD of MS2 coat protein [4] [µM]
GUCACUAGAGGAUAUACAAUGGUAUAUGAUCCUAGAGACAAACAUGAGGAUCACCCAUGUAGAAGGCUAGUAAA [Exclusion 2 - 1] (puzzle: Exclusion 2)	0.0321	0.153	0.0895			
GUCAGACGAGGAUAUAGAUUUAAGUACAUGAGGAUCACCCAUGUGCAUAUGUAUUUAGAUUUAGAAGGCGUCUGAC [E5/18-A3] (Eterna round: R97, puzzle: Exclusion 5)				0.584	0.428	
GUCAGCUCGUGAGGAUAUACAUGAUAGAUCGAUUAAUUAAUUAAUUUAACAUGAGGAUCACCCAUGUAGAAGGUACGAGCUGAC [ENG2/1-C1] (Eterna round: R96, puzzle: Exclusion NG 2)						0.0433
GUCAGCUCGUGAGGAUAUACAUGCGUGCUUCGGCACGUAUGAUAGAUCACAUGAGGAUCACCCAUGUAGAAGGUACGAGCUGAC [ENG2/4-C1] (Eterna round: R96, puzzle: Exclusion NG 2)				0.0134	0.0148	0.0122
GUCAUACAUGAGGAUCACCCAUGUGAGGAUAUGAGUGGUGCUGCUAGGUAGUAUAGACUCAGAAGGCGCAUGAU [Malcxlusion 1 - Jieux - Exclusion 1] (Eterna round: R97, puzzle: Exclusion 1)				0.288	0.105	
GUCAUACAUGAGGAUCACCCAUGUGAGGAUAUGGGCGGCGCCGCAAAAGCGGCGCCGCCCAGAAGGCGCAUGAU [Malcxlusion 5 - Jieux - Exclusion 1] (Eterna round: R97, puzzle: Exclusion 1)				0.195	0.0715	
GUCAUCAAACAUGGGAUCAACAUGAGGAUCACCCAUGUUGACAAGUUUUUUGCUCGUCUUAUAAUAAGUUUGAUGAC [Antenna 9 - Jieux - Sensor, turn-off variant 1] (Eterna round: R97, puzzle: Sensor, turn-off variant 1)				0.0155	0.0162	
GUCAUCACACAUGGGAUCAACAUGAGGAUCACCCAUGUUGUCAAGUUUUUUGCUCGUCUUAUAAUACGUUUGAUGAC [Mod-Jxc] (Eterna round: R97, puzzle: Sensor, turn-off variant 1)				0.0267		
GUCCGGCAUGUAGGAUAUGGAUCCGAUUAGGAUUUAGAAGGACAUGAGGAUCACCCAUGUACAUUUAAUUAGUCAUUACCGGAC [EXclNG1-LROPPY03] (Eterna round: R96, puzzle: Exclusion NG 1)				0.0146	0.0149	0.00947
GUCCUACAUGAGGAUCACCCAUGUGAGGAUAUGCGGUUAGCUGCUAGGUAGUUAGUAUGCAGAAGGCGCGUGAA [EX1 #80] (Eterna round: R97, puzzle: Exclusion 1)				0.0159	0.014	
GUCCUCAUGACAUGAGGAUCACCCAUGUAUUAUUUGUUAACUGAGGAUAUACUCUUAAUGUUUAUGUAGAAGGCAGAUUCGGUC [JR_ExcNG3_Sub019] (Eterna round: R96, puzzle: Exclusion NG 3)				0.0516	0.0407	0.0378
GUCCUGGACUAUCACAAGCACAUGAGGAUCACCCAUGUCAUGGGUAGAUUUAUAAAUAAAGAUACUGCUCGUCUUAU [Cac Sensor turn off var1 sub7] (Eterna round: R97, puzzle: Sensor, turn-off variant 1)				0.197	0.252	
GUCGAGUGAGGAUAUGGUGAGUAGUGCCUGAGCGCUGCUCACCAGAAGGCACAUGAGGAUCACCCAUGUAUAGC [JL-ex4-2.05 denovo] (puzzle: Exclusion 4)		0.0155				
GUCGAGUGAGGAUAUGGUGAGUAGUGCCUGAGCGCUGCUCACCAGAAGGCACAUGAGGAUCACCCAUGUAUGAC [Mat - Exclusion 4 - Mod of JL - D12] (puzzle: Exclusion 4)		0.0178				
GUCGUGCAGCUUUGCUGUACGAGUACAUGAGGAUCACCCAUGUAGGAUAUGGUACGCUUUGCGUGCCAGAAGGACGUGCGUUGG [salish99_ExNG3_r04_004] (Eterna round: R96, puzzle: Exclusion NG 3)						0.0383
GUCGUGCGGCUUUGCUGUACGAGUACAUGAGGAUCACCCAUGUAGGAUAUGGUUCGCUUUGCGUGCCAGAAGGGCGUGCGUUGG [Excl-NG3-LRO12] (Eterna round: R96, puzzle: Exclusion NG 3)				0.0313	0.0311	0.0216
GUCGUGUUAGGAUAUGGCAACUACUAAUAAAUUAGUAGUUGUUAGAAGGAACAUGAGGAUCACCCAUGUAUGAC [-23, -22.5 kcal, A 34%] (Eterna round: R97, puzzle: Exclusion 4)				0.122	0.0399	

Sequence	apparent KD of MS2 coat protein [1] [µM]	apparent KD of MS2 coat protein [2] [µM]	apparent KD of MS2 coat protein [3] [µM]	apparent KD of MS2 coat protein (input ligand: FMN 200 uM) [µM]	apparent KD of MS2 coat protein (input ligand: none) [µM]	apparent KD of MS2 coat protein [4] [µM]
GUGAAACAUGAGGAUCACCCAUGUCAGGAUAUGCGAAUUUCAUCAAAAGAUGAAAUUUGCAGAAGGGACUGUAC [Omei Ex1 A21] (Eterna round: R97, puzzle: Exclusion 1)				0.136	0.0703	
GUGAAACAUGAGGAUCACCCAUGUGAGGAUAUGUUUUAGUACUGGAGACAGUACAUCUAUAGAAGGCACAAUGG [Mat - Mod of JL D75] (puzzle: Exclusion 1)		0.0547				
GUGAGCAGACGGAGAUCCAACAUGAGGAUCACCCAUGUCUCACAAGCUUUUUGCUCGUCUUAUCCUCCUCUGUUCAC [Elimod 22 - Jieux - Sensor, turn-off variant 1] (Eterna round: R97, puzzle: Sensor, turn-off variant 1)				0.0158	0.0146	
GUGAGGGAGUGAGGAUAUCAGGGAGAUAAGAAAUGAGAAGGUACAUGAGGAUCACCCAUGUAAGAGUAGGGAAGAGAGAAGAGU [Default title] (Eterna round: R96, puzzle: Exclusion NG 1)				0.0693	0.0667	0.0316
GUGAUAACCAAGCUAGCCAACAUGAGGAUCACCCAUGUGUUCGAUAUGCAACAGGUAUGAUCUUAAUUUGCUCGAUC [Eternabot (Original) Solution 20] (Eterna round: R97, puzzle: Sensor, turn-off variant 1)				0.0443	0.0485	
GUGAUCUAUCAUGUAAUGAACAUGAGGAUCACCCAUGUAGGCAAGUUUUUUGCUCGUCACAUAAUAAGAUAGAUCAC [Antenna 19 - Jieux - Sensor, turn-off variant 1] (Eterna round: R97, puzzle: Sensor, turn-off variant 1)				0.0143	0.0132	
GUGCAACAUGAGGAUCACCCAUGUCAGGAUAUGCGAAUUUCAUCAAAAGAUGAAAUUUGCAGAAGGGACUGUAC [Omei Ex1 A20] (Eterna round: R97, puzzle: Exclusion 1)				0.0406	0.0489	
GUGCCGCGAGGAUAUACAGACGGGUCCAGGGCGUGUCUCGGACUUGAGGAUCACCCAAGUAGAAGGCGUCUCAG [salish99_ex2_r4_615] (Eterna round: R97, puzzle: Exclusion 2)				0.0776	0.0267	
GUGCCGCGAGGAUAUACAGACGGGUCCAUUACGUGUCUCGGACUUGAGGAUCACCCAAGUAGAAGGCGUUUCAG [salish99_ex2_r4_624] (Eterna round: R97, puzzle: Exclusion 2)				0.0207	0.0384	
GUGCGUGGCUAGGAUAUUGAGGAAUUUAGUCAGCGAGAAGGAGCCACAUGAGGAUCACCCAUGUGGUGAAGCUC [salish99_ex6_r4_001] (Eterna round: R97, puzzle: Exclusion 6)				0.0702	0.0179	
GUGGCACAUGAGGAUCACCCAUGUUAGGAUAUGCUCAAAACGCCCUAGGGUAAGCUGUGUAGAAGGAGCAGGAC [Eternabot (L1) Solution 52] (Eterna round: R97, puzzle: Exclusion 1)				0.0337	0.0356	
GUGGCGGAUGCGAACAUGAGGAUCACCCAUGUACAGUCCCUACAGGAUAUCCGCAGUGCCUAGCAGGAGAAGGGUAGGAGCACA [Eternabot solution 40] (Eterna round: R96, puzzle: Exclusion NG 3)				0.016	0.0179	0.0107
GUGGGUCCUCACGGUGCUACAUGAGGAUCACCCAUGUGGAUUGAGGAUAUCGUAACCCGACGGGACGAGAAGGCAGUUUACUGU [Ex NG3 #99] (Eterna round: R96, puzzle: Exclusion NG 3)				0.0662	0.0272	0.0148
GUGGGUUACAUGAGGAUCACCCAUGUAUAGUGGGAAGAGAGAUAGGAUAUGAUGUGAGAAUUAUAUUAGAAGGAUCGAGACUAG [AK ExNG3-2.6] (Eterna round: R96, puzzle: Exclusion NG 3)				0.632	0.351	0.236
GUGGUACAUGAGGAUCACCCAUGUUAGGAUAUCGCGUGAGGUUUUACUUCCGCGCGCGCGAGAAGGGACGUCUU (puzzle: Exclusion 1)		0.0233				
GUGGUCCGAGGAUAUAUUAUGUGAUACAUGAGGAUCACCCAUGUUAUAUGAUGGAUGUUAGUAGAAGGCGGACUAC [Mat - Exclusion 5 - JL mod - D82] (puzzle: Exclusion 5)	0.0952	0.0862	0.0964			
GUGGUCUAUGUAGGAUAUACGUUUGUGCGAUGCGUAGAAGGACAUGAGGAUCACCCAUGUGUGCGAGGAUCACCCGUGUGUUGU [double] (Eterna round: R96, puzzle: Exclusion NG 1)				0.158	0.1	0.0839
